B1: LINE1-full (parent)
chain: UACGUAGGUGGUUUUCCCCUGAUAGUGCUAAGGGGGCCUGGAAGUUUGGACUGGGCAGAGCUCAACACAGCGUGGCAAAGUGGCUGUGGCUAGACUGCCUCUCUGGAUUCCUCGUCACUCAGCAGGGCAUCUCUGAGAGAAAUGCC

Variants of: B1
Assay: self-cleavage, relative activity (ratio to wild type); higher = more cleavage; in vitro, sequencing; the parent is a self-cleaving ribozyme

Variant | self-cleavage
UACGUAGGUGGUUUUCCCCUGAUAGUGCUAAGGGGGCCCGGAAGUUUGGACUGGGCAGAGGUCAACACAGCGUGGCAAAGUGGCUGUGGCUAGACUGCCUCUCUGGAUUCCUCGUCACUCAGCAGGGCAUCUCUGAGAGAAAUGCC [U39C C61G] | 0.07
UACGUAGGUGGUUUUCCCCUGAUAGUGCUAAGGGGGCCUGGAAGUUUGGACUGGGCAGAGCUCAACACUGCGUGGCAAAGUGGCUGUGGCUAGACUGCCUCUCUGGAUUCCUCGUCACUCAGCAGGGCAUCUCCGAGAGAAAUGCC [A69U U134C] | 0.09
UACGUAGGUGGUUUUCCCCUGAUAGUGCUAAGGGGGCCUGGAAGUUUGGACUGGGCAGAGCUCAACACAGCGUGGCAAAGUGGCUGUGGCUAGACUGCCUCUCUGGAUUCCUCGUCGCUCAGCAGGGCAUCUCUGAGAGAAGUGCC [A117G A142G] | 1.25
UACGUAGGUGGUUUUCCCCUGAUAGCGCAAAGGGGGCCUGGAAGUUUGGACUGGGCAGAGCUCAACACAGCGUGGCAAAGUGGCUGUGGCUAGACUGCCUCUCUGGAUUCCUCGUCACUCAGCAGGGCAUCUCUGAGAGAAAUGCC [U26C U29A] | 1.35
UACGUAGGUGGUUUUCCCCUGAUAGUGCUAAGGGGGCCUGGAAGUUUGGACUGGGCAGAGCUCAGCACAGCGUGGCAAAGAGGCUGUGGCUAGACUGCCUCUCUGGAUUCCUCGUCACUCAGCAGGGCAUCUCUGAGAGAAAUGCC [A65G U81A] | 0.06
UACGUAGGUGGUUUUCCCCUGAUAGUGCUAAGGGGGCCUGGAAGUUUGGACUGGGCAGAGCUCAACACAGCGUGGCAAAGUGGCUGUGGCUAGACUGCCACCCUGGAUUCCUCGUCACUCAGCAGGGCAUCUCUGAGAGAAAUGCC [U100A U102C] | 1.7
UACGUAGGUGGUUUUCCCCUGAUAGUGCUAAGGGGGCCUGGGAGUUUGGACUGGGCAAAGCUCAACACAGCGUGGCAAAGUGGCUGUGGCUAGACUGCCUCUCUGGAUUCCUCGUCACUCAGCAGGGCAUCUCUGAGAGAAAUGCC [A42G G58A] | 0
UACGUAGGUGGUUUUCCCCUGAUAGUGCUAAGGGGGCCUGGAAGUUUGGACUGGGCAGAGCUCAACACAGCGUGGCAAAGUGGCUGUGGCUAGACUGCCUCUCUGGAUUCCUCGUCACUCAGCAGGGCACCUCUGAGAGAACUGCC [U130C A142C] | 1.76
UACGUAGGUGGUUUUCCCCUGAAAGUGCUAAGGGGGCCUGGAAGUUUGGACUGGGCAGAGCUCAACACAGCGUGGCAAGGUGGCUGUGGCUAGACUGCCUCUCUGGAUUCCUCGUCACUCAGCAGGGCAUCUCUGAGAGAAAUGCC [U23A A79G] | 1.31
UACGUAGGUGGUUUUCCCCUGAUAGUGCUAAGGGGGCCUGGAAGUUUGGACUGGGCAGAGCUCAACACAGCGUGGCAAAGUGGCUGUGGCUAGACUGCCUCCCUGGAUUCCUCGUCACUCAGCAGGGCAUCCCUGAGAGAAAUGCC [U102C U132C] | 1.75
UACGUAGGUGGUUUUCACCUGAUAGUGCUAAGGGAGCCUGGAAGUUUGGACUGGGCAGAGCUCAACACAGCGUGGCAAAGUGGCUGUGGCUAGACUGCCUCUCUGGAUUCCUCGUCACUCAGCAGGGCAUCUCUGAGAGAAAUGCC [C17A G35A] | 0.81
CACGCAGGUGGUUUUCCCCUGAUAGUGCUAAGGGGGCCUGGAAGUUUGGACUGGGCAGAGCUCAACACAGCGUGGCAAAGUGGCUGUGGCUAGACUGCCUCUCUGGAUUCCUCGUCACUCAGCAGGGCAUCUCUGAGAGAAAUGCC [U1C U5C] | 0.87
UACGUAGGUGGUUUUCCCCUGAUAGUGCUAAGGGGGCCUGGAAGUUUGGACUGGGCAGAGCUCAACACAGCGUGGCAAAGUGGCUGUGGCUAGACUGCCUCUCUGGAUCCCUCGUCACUCAGCAGGGCAUCUCUGAGGGAAAUGCC [U109C A138G] | 1.69
UACGUAGGUGGUUUUCCCCAGAUAGUGCUAAGGGGGCCUGGAAGUUUGGACUGGGCAGAGCUCAACACAGCGUGGCAAAGUGGCUGUGGCUAGACUGCCUCUCUGGAUUCCUCGUCACUCAGCAGGGCAUCUCUGAGGGAAAUGCC [U20A A138G] | 1.27
UACGUAGGUGGUUUUCCCCUGAUAGUGCCAAGGGGGCCUGGAAGUUUGGACUGGGCAGAGCUCAACACUGCGUGGCAAAGUGGCUGUGGCUAGACUGCCUCUCUGGAUUCCUCGUCACUCAGCAGGGCAUCUCUGAGAGAAAUGCC [U29C A69U] | 0.11
UACGUAGGUGGUUUUCCCCUGAUAGUGCUAAGGGGGCCUGGAAGUUUGGACUGGGCAGAGCUCAACACAGCGUGGCAAAGUGGCUGCGGCUAGACUGCCUCUCUGGAUUCUUCGUCACUCAGCAGGGCAUCUCUGAGAGAAAUGCC [U87C C111U] | 0.23
UACGUAGGUGGUUUUCCCCUGAUAGUGCCAAGGGGGCCUGGAAGUUUGGACUGGGCAGAGCUCAACACAGCGUGGCAAAGUGGCUGUGGCUAGGCUGCCUCUCUGGAUUCCUCGUCACUCAGCAGGGCAUCUCUGAGAGAAAUGCC [U29C A94G] | 0.54
UACGUAGGUGGUUUUCCCCUGAUAGUGCUAAGGGGGCCUGGAAGUUUGGACUGGGCAGAGCUCAACACAGCGUGGCAAAGUGGCUGUGGCUAGACUGCCUCUCUGGAUUCCUCGCCACUCAGCAGGGCAUCUCUGAGAGAAAUACC [U115C G144A] | 2.69
UACGUAGGUGGCUUUCCCCUGAUAGUGCUAAGGGGGCCUGGAAGUUUGGACUGGGCAGAGCUCAACACAGCGUGGCAAAGUGGCUGUGGCUAGACAGCCUCUCUGGAUUCCUCGUCACUCAGCAGGGCAUCUCUGAGAGAAAUGCC [U12C U96A] | 0.1
UACGUAGGUGGUUUUCCCCUGAUAGUGCUAAGGGGGCCUGGAAGUUUGGACUGGGCAGAGAUCAACACAGCGUGGCAAAGUGGCUGUGGCUAGACUGCCUCCCUGGAUUCCUCGUCACUCAGCAGGGCAUCUCUGAGAGAAAUGCC [C61A U102C] | 0.05

Variant | self-cleavage
UACGUAGGUGGUUUUCCCCUGAUAGUGCUAAGGAGGCCUGGAAGUUUGGACUGGGCAGAGCUCAACACAGCGUGGCUAAGUGGCUGUGGCUAGACUGCCUCUCUGGAUUCCUCGUCACUCAGCAGGGCAUCUCUGAGAGAAAUGCC [G34A A77U] | 1.33
UACGUAGGUGGUUUUCCCCUGAUAGUGAUAAGGGGGCCUGGAAGUUUGGACUGGGCAGAGCUCAACACAGCGUGGCAAAGUGGCUGUGGCUAGACUGCCUCUCUGGAUUCCUCGCCACUCAGCAGGGCAUCUCUGAGAGAAAUGCC [C28A U115C] | 1.07
UACGUAGGUGGUUUUCCCCUGAUAGUGCUAAGGGGGCCUGGAAGUUUGGACUGGGCUGAGCUCAACACAGCGUGGCAAAGUGGCUGUGGCUAGACUGCCUCUCUGGAUUCCUCGUCACUCAGCAGGGCAUCUCUGAGAGAAAUGCC [A57U] | 0.1
UACGUAGGUGGUUUUCCCCUGAUAGUGCUAAGGGGGCCUGGAAGUUUGGACUGGGCAGAGCUCAACACAGCGUGGCAAAGUGGCUGUGGCUAGACUGCCUCACUGGAUCCCUCGUCACUCAGCAGGGCAUCUCUGAGAGAAAUGCC [U102A U109C] | 1.31
UACGUAGGUGGUUUUCCCCUGAUAGUGCUAAGGGGGCCUGGAAGUUGGGACUGGGCAGAGCUCAACACAGCGUGGCAAAGUGGCUGUGGCUAGACUGCCUCUCUGGAUUCCUCGUCACUCAGCAGGGCAUCUCUGAGAGAAAUGCU [U47G C146U] | 1.69
UACGUAGGUGGUUUUCCCCUGUUAGUGCUAAGGGGGCCUGGAAGUUUGGACUGGGCGGAGCUCAACACAGCGUGGCAAAGUGGCUGUGGCUAGACUGCCUCUCUGGAUUCCUCGUCACUCAGCAGGGCAUCUCUGAGAGAAAUGCC [A22U A57G] | 0.84
UACGUAGGUGGUUAUCCCCUGAUAGUGCUAAGGGGGCCUGGAAGUUUGGACUGGGCAGAGCUCAACACAGCGUGGCAAAGUGGCUGUGGCUAGACUGCUUCUCUGGAUUCCUCGUCACUCAGCAGGGCAUCUCUGAGAGAAAUGCC [U14A C99U] | 0.85
UACGUAGGUGGUUUUCCCCUGAUAGUGCUAAGGGGGCCUGGAAGUUUGGACUGGGCAGAGCUCAACUCAGCGUGGCAAAGUGGCUGUGGCUAGACUGCCUCUCAGGAUUCCUCGUCACUCAGCAGGGCAUCUCUGAGAGAAAUGCC [A67U U104A] | 0.03
UACGUAGGAGGUUUUCCCCUGAUAGUACUAAGGGGGCCUGGAAGUUUGGACUGGGCAGAGCUCAACACAGCGUGGCAAAGUGGCUGUGGCUAGACUGCCUCUCUGGAUUCCUCGUCACUCAGCAGGGCAUCUCUGAGAGAAAUGCC [U9A G27A] | 0.81
UACGUAGGUGGUUUUCUCCUGAUAGUGCUAAGGGGGCCUGGAAGUUUGGACUGGGCAGAGCUCAACACAGCGUGGCAAAGAGGCUGUGGCUAGACUGCCUCUCUGGAUUCCUCGUCACUCAGCAGGGCAUCUCUGAGAGAAAUGCC [C17U U81A] | 1.53
UACGUAGGUGGUUUUCCCCUGAUAGUGCUAAGGGGGCCUGGAAGUUUGGACUGGGCAGAGCUCAACACAGCGUGGCAAAGUGGCUGUGGCUAGACUGCCUCCCUGGAUUCCUCGUCACUCAGCAGGGCAUCUCCGAGAGAAAUGCC [U102C U134C] | 1.55
UACGUAGGUGGUUUUCCCCUGAUAGUGCUAAGGGGGCCUGGAGGUUUGGACUGGGCAGAGCUCAACACAGCGUGGCAAAGUGGCUGCGGCUAGACUGCCUCUCUGGAUUCCUCGUCACUCAGCAGGGCAUCUCUGAGAGAAAUGCC [A43G U87C] | 0.32
UACGUAGGUGGUUUUCCCCUGAUAGUGCUAAGGGGGCCUGGAAGUAUGGACUGGGCAGAGCUCAACACAGCGUGGCAAAGUGGCUGUGGCUAGACUGCCUCUCUGGAUUCCUCGUCACUCAGCAGGGCAUCUCUGAGAGAUAUGCC [U46A A141U] | 1.01
UACGUAGGUGGUUUUCCCCUGAUAGUGCUAAGGGGGCCUGGAAGUUUGGACUGGGCAGAGCUCAACACAGCGUGGAAAAGUGGCUGUGGCUAGACUGCCUCUCUGGAUUCCUCGUCACUCAGCGGGGCAUCUCUGAGAGAAAUGCC [C76A A124G] | 0.92
UACGUAGGUGGUUUUCCCCUGAUAGUGCUAAGGGGGCCUGGAAGUUUGGACUGGGCAGAGCUCAACACAGCGCGGCAAAGUGGCUGUGGCUAGACUGCCUCUCUGGAUUCCUCGUCACUCAGCAGGGCAUCUCUGAGAGAAUUGCC [U73C A142U] | 1.24
UACGUAGGUGGUUUUCCCCUGAUAGUGCUAAGGGGGCCUGGAAGUUUGGACCGGGCAGAGCUCAACACAGCGUGGCAAAGUGGCUGUGGCUAGACUGCCUCUCUGGAUUCCUCGUCACUCCGCAGGGCAUCUCUGAGAGAAAUGCC [U52C A121C] | 1.92
UACGUAGGUGGUUUUCCCCUGAUAGUGCUAAGGGGGCCUGGAAGUUUGGACUGGGCAGAGCUCAACACGGCGUGGCAAAGUGGCUGUGGCUAGACUGUCUCUCUGGAUUCCUCGUCACUCAGCAGGGCAUCUCUGAGAGAAAUGCC [A69G C98U] | 0.04
UACGUAGGUGGUUUUCCCCUGAUAGUGCUAAGGGGGCCUGGAAGUUUGGACUGGGCAGAGCACAACACAGCGUGGCAAAGUGGCUGUGGCUAGACUGCCUCUCUGGAUUCCUCGUCACUCAGCAGGGCAUCUCGGAGAGAAAUGCC [U62A U134G] | 0.1
UACGUAGGAGGUUUUCCCCUGAUAGUGCUAAGGGGGCCUGGAAGUUUGGACUGGGCAGAGCUCAACACAGCGUGGCAAAGUGGCUGUGGCUAGACUGCCUCUCUGGAUUCCUCGUCACUCAGCAGGGCAUCUCUGAGAGGAAUGCC [U9A A140G] | 1.11
